What all share (format): biochemical
Assay [1] can be described thus: Lipase-catalyzed perhydrolysis of a mixture of diacetin, triacetin and monoacetin at pH 6.5 (Example 4). Particulars: diacetin (278 mM), triacetin (144 mM), monoacetin (131 mM); for 250 mM H2O2 peracetic acid (ppm), 5 min / 250 mM H2O2 peracetic acid (ppm), 30 min: pH 6.5, 250 mM H2O2, 1 mg enzyme; for 500 mM H2O2 peracetic acid (ppm), 5 min / 500 mM H2O2 peracetic acid (ppm), 30 min: pH 6.5, 500 mM H2O2, 1 mg enzyme. How it is done:
Into a 4-mL glass vial with stir bar was added 1 mg enzyme (ICR 101-117, BioCatalytics, Pasadena, Calif.) in 0.050 mL of 50 mM potassium phosphate buffer (pH 6.5), 0.900 mL of an aqueous mixture containing diacetin (278 mM), triacetin (144 mM) and monoacetin (131 mM) in 50 mM potassium phosphate buffer (pH 6.5), and either 0.052 mL 30% hydrogen peroxide (500 mM final concentration) or 0.026 mL 30% hydrogen peroxide (250 mM final concentration). […] A portion of the filtered reaction samples was diluted 1:10 with dd water and analyzed for hydrogen peroxide, and the remaining portion of the sample was directly analyzed for peracid using the HPLC assay method (Table 4).

A short description of assay [2]: Lipase-catalyzed perhydrolysis of triacetin at pH 6.5 (Example 1). Particulars: 250 mM triacetin, 500 mM H2O2, pH 6.5, 1 mg enzyme, 22° C. How it is done:
Into a 4-mL glass vial with stir bar was added 1 mg enzyme (ICR 101-117, BioCatalytics, Pasadena, Calif.) in 0.050 mL of 50 mM potassium phosphate buffer (pH 6.5), 0.900 mL of 278 mM triacetin in 50 mM potassium phosphate buffer (pH 6.5, 250 mM final triacetin concentration), and 0.052 mL 30% hydrogen peroxide (500 mM final concentration). After stirring for 5 or 30 minutes at 22° C., a 0.250 mL sample was filtered using a 30,000 Nominal Molecular Weight Limit (NMWL) filter (Millipore UltraFree-MC, Millipore Corp., Billerica, Mass.) centrifuged for 2 minute at 12,000 RPM. A portion of the filtered reaction samples was diluted 1:10 with dd water and analyzed for hydrogen peroxide, and the remaining portion of the sample was directly analyzed for peracid using the HPLC assay method (Table 1).

A short description of assay [3]: Lipase-catalyzed perhydrolysis of triacetin at pH 4.0 (Example 2). Conditions: 250 mM triacetin, 500 mM H2O2, pH 4.0, 1 mg enzyme, 22° C. As to the method:
Into a 4-mL glass vial with stir bar was added 1 mg enzyme (ICR 101-117, BioCatalytics, Pasadena, Calif.) in 0.050 mL of 50 mM sodium acetate/acetic acid buffer (pH 4.0), 0.900 mL of 278 mM triacetin in 50 mM sodium acetate/acetic acid buffer (pH 4.0, 250 mM final triacetin concentration), and 0.052 mL 30% hydrogen peroxide (500 mM final concentration). […] A portion of the filtered reaction samples was diluted 1:10 with dd water and analyzed for hydrogen peroxide, and the remaining portion of the sample was directly analyzed for peracid using the HPLC assay method (Table 2).

The nature of assay [4]: Protease-catalyzed perhydrolysis of diacetamide at pH 6.5 (Example 9). Particulars: pH 6.5, 500 mM H2O2, 1 mg protease. As to the method:
(§1) Into a 4-mL glass vial with stir bar was added 1 mg protease (Table 6) in 0.050 mL of 50 mM potassium phosphate buffer (pH 6.5), 0.900 mL of an aqueous mixture containing either a) acetamide (278 mM) in 50 mM potassium phosphate buffer (pH 6.5) or b) diacetamide (278 mM) in 50 mM potassium phosphate buffer (pH 6.5), and 0.052 mL 30% hydrogen peroxide (500 mM final concentration). […] A portion of the filtered reaction samples was diluted 1:10 with dd water and analyzed for hydrogen peroxide, and the remaining portion of the sample was directly analyzed for peracid using the HPLC assay method (Table 10).

A short description of assay [5]: Protease-catalyzed perhydrolysis of acetamide at pH 4.0 (Example 6). Particulars: pH 4.0, 500 mM H2O2, 1 mg protease. As to the method: as §1, with “sodium acetate/acetic acid” for “potassium phosphate”, “4.0),” for “6.5),”, “4.0)” for “6.5)”, “7).” for “10).”
Assay [6] is described as follows: Protease-catalyzed perhydrolysis of acetamide at pH 6.5 (Example 9). Conditions: pH 6.5, 500 mM H2O2, 1 mg protease. As to the method:
as §1

B1: ICR-107: Pseudomonas cepacia lipase, BioCatalytics (protein, UniProt P22088 45-364, looked up)
Triacylglycerol lipase: AAGYAATRYPIILVHGLSGTDKYAGVLEYWYGIQEDLQQNGATVYVANLSGFQSDDGPNGRGEQLLAYVKTVLAATGATKVNLVGHSQGGLSSRYVAAVAPDLVASVTTIGTPHRGSEFADFVQDVLAYDPTGLSSSVIAAFVNVFGILTSSSHNTNQDALAALQTLTTARAATYNQNYPSAGLGAPGSCQTGAPTETVGGNTHLLYSWAGTAIQPTLSVFGVTGATDTSTLPLVDPANVLDLSTLALFGTGTVMINRGSGQNDGLVSKCSALYGKVLSTSYKWNHLDEINQLLGVRGAYAEDPVAVIRTHANRLKLAGV
Take B1: in assay [1], the “250 mM H2O2 peracetic acid (ppm), 5 min” value was 0 ppm; the “250 mM H2O2 peracetic acid (ppm), 30 min” value came to 102 ppm; the “500 mM H2O2 peracetic acid (ppm), 5 min” value is 17 ppm; the “500 mM H2O2 peracetic acid (ppm), 30 min” value stood at 54 ppm. In assay [2], the “peracetic acid (ppm), 5 min” value is listed as 179 ppm and the “peracetic acid (ppm), 30 min” value turned out to be 0 ppm. Besides, in assay [3], the “peracetic acid (ppm), 5 min” value is 32 ppm and the “peracetic acid (ppm), 30 min” value came out at 135 ppm.

B2: ICR-114: porcine pancreas lipase, BioCatalytics (protein, UniProt P00591 1-450, looked up)
Pancreatic triacylglycerol …: SEVCFPRLGCFSDDAPWAGIVQRPLKILPWSPKDVDTRFLLYTNQNQNNYQELVADPSTITNSNFRMDRKTRFIIHGFIDKGEEDWLSNICKNLFKVESVNCICVDWKGGSRTGYTQASQNIRIVGAEVAYFVEVLKSSLGYSPSNVHVIGHSLGSHAAGEAGRRTNGTIERITGLDPAEPCFQGTPELVRLDPSDAKFVDVIHTDAAPIIPNLGFGMSQTVGHLDFFPNGGKQMPGCQKNILSQIVDIDGIWEGTRDFVACNHLRSYKYYADSILNPDGFAGFPCDSYNVFTANKCFPCPSEGCPQMGHYADRFPGKTNGVSQVFYLNTGDASNFARWRYKVSVTLSGKKVTGHILVSLFGNEGNSRQYEIYKGTLQPDNTHSDEFDSDVEVGDLQKVKFIWYNNNVINPTLPRVGASKITVERNDGKVYDFCSQETVREEVLLTLNPC
On to B2, for which, in assay [1], the “250 mM H2O2 peracetic acid (ppm), 5 min” value stood at 0 ppm; the “250 mM H2O2 peracetic acid (ppm), 30 min” value is 0 ppm; the “500 mM H2O2 peracetic acid (ppm), 5 min” value turned out to be 0 ppm; the “500 mM H2O2 peracetic acid (ppm), 30 min” value was 0 ppm. In assay [2], the “peracetic acid (ppm), 5 min” value was 135 ppm and the “peracetic acid (ppm), 30 min” value came to 0 ppm. Also, in assay [3], the “peracetic acid (ppm), 5 min” value is on record as 165 ppm and the “peracetic acid (ppm), 30 min” value worked out at 53 ppm.

B3: ICR-115: Thermomyces languinosus lipase, BioCatalytics (protein, UniProt O59952 23-291, looked up)
Lipase: EVSQDLFNQFNLFAQYSAAAYCGKNNDAPAGTNITCTGNACPEVEKADATFLYSFEDSGVGDVTGFLALDNTNKLIVLSFRGSRSIENWIGNLNFDLKEINDICSGCRGHDGFTSSWRSVADTLRQKVEDAVREHPDYRVVFTGHSLGGALATVAGADLRGNGYDIDVFSYGAPRVGNRAFAEFLTVQTGGTLYRITHTNDIVPRLPPREFGYSHSSPEYWIKSGTLVPVTRNDIVKIEGIDATGGNNQPNIPDIPAHLWYFGLIGTCL
On to B3, for which, in assay [1], the “250 mM H2O2 peracetic acid (ppm), 5 min” value stood at 0 ppm; the “250 mM H2O2 peracetic acid (ppm), 30 min” value is 8 ppm; the “500 mM H2O2 peracetic acid (ppm), 5 min” value stood at 11 ppm; the “500 mM H2O2 peracetic acid (ppm), 30 min” value worked out at 8 ppm. In assay [2], the “peracetic acid (ppm), 5 min” value is 216 ppm and the “peracetic acid (ppm), 30 min” value is given as 113 ppm. Moreover, in assay [3], the “peracetic acid (ppm), 5 min” value came to 206 ppm and the “peracetic acid (ppm), 30 min” value turned out to be 132 ppm.

B4: Proteinase K, T. album, recombinantly expressed in P. pastoris: Proteinase K, T. album, recombinantly expressed in P. pastoris, Roche 3115879 (protein, UniProt P06873 106-384, looked up)
Proteinase K: AAQTNAPWGLARISSTSPGTSTYYYDESAGQGSCVYVIDTGIEASHPEFEGRAQMVKTYYYSSRDGNGHGTHCAGTVGSRTYGVAKKTQLFGVKVLDDNGSGQYSTIIAGMDFVASDKNNRNCPKGVVASLSLGGGYSSSVNSAAARLQSSGVMVAVAAGNNNADARNYSPASEPSVCTVGASDRYDRRSSFSNYGSVLDIFGPGTSILSTWIGGSTRSISGTSMATPHVAGLAAYLMTLGKTTAASACRYIADTANKGDLSNIPFGTVNLLAYNNYQA
modifications: recombinant, Pichia pastoris
B4: the “diacetamide (250 mM) peracetic acid (ppm), 5 min” value in assay [4] (5 min) came to 66 ppm. Further, the “diacetamide (250 mM) peracetic acid (ppm), 30 min” value in assay [4] (30 min) was determined as 99 ppm. Moreover, the “acetamide (250 mM) peracetic acid (ppm), 5 min” value in assay [5] (5 min) turned out to be 26 ppm; in assay [6] (5 min), 150 ppm. The “acetamide (250 mM) peracetic acid (ppm), 30 min” value in assay [5] (30 min) was 43 ppm; in assay [6] (30 min) it was 194 ppm.

B5: ICR-116: Mucor miehei lipase, BioCatalytics (protein, UniProt P19515 95-363, looked up)
Lipase: SIDGGIRAATSQEINELTYYTTLSANSYCRTVIPGATWDCIHCDATEDLKIIKTWSTLIYDTNAMVARGDSEKTIYIVFRGSSSIRNWIADLTFVPVSYPPVSGTKVHKGFLDSYGEVQNELVATVLDQFKQYPSYKVAVTGHSLGGATALLCALDLYQREEGLSSSNLFLYTQGQPRVGDPAFANYVVSTGIPYRRTVNERDIVPHLPPAAFGFLHAGEEYWITDNSPETVQVCTSDLETSDCSNSIVPFTSVLDHLSYFGINTGLCT
Regarding B5, in assay [1], the “250 mM H2O2 peracetic acid (ppm), 5 min” value was 0 ppm; the “250 mM H2O2 peracetic acid (ppm), 30 min” value amounted to 7 ppm; the “500 mM H2O2 peracetic acid (ppm), 5 min” value amounted to 0 ppm; the “500 mM H2O2 peracetic acid (ppm), 30 min” value was 0 ppm. Besides, in assay [2], the “peracetic acid (ppm), 5 min” value is reported as 238 ppm and the “peracetic acid (ppm), 30 min” value is recorded as 117 ppm. Further, in assay [3], the “peracetic acid (ppm), 5 min” value worked out at 14 ppm and the “peracetic acid (ppm), 30 min” value was 0 ppm.
